Measurements: the supplement of paper PMC7877785
± gives the uncertainty stated by the source.

Assay: self-splicing fitness, log relative to wild type (ln ratio); higher = more splicing; Tetrahymena group I intron in knt gene, E. coli kanamycin selection, DiMSum; sequences stand for … in CUCUCU…GGAGGGAAAAGUUAUCAGGCAUGCACCUGGUAGCUAGUCUUUAAACCAAUAGAUUGCAUCGGUUUAAAAGGCAAGACCGUCAAAUUGCGGGAAAGGGGUCAACAGCCGUUCAGUACCAAGUCUCAGGGGAAACUUUGAGAUGGCCUUGCAAAGGGUAUGGUAAUAAGCUGACGGACAUGGUCCUAACCACGCAGCCAAGUCCUAAGUCAACAGAUCUUCUGUUGAUAUGGAUGCAGUUCACAGACUAAAUGUCGGUCGGGGAAGAUGUAUUCUUCUCAUAAGAUAUAGUCGGACCUCUCCUUAAUGGGAGCUAGCGGAUGAAGUGAUGCAACACUGGAGCCGCUGGGAACUAAUUUGUAUGCGAAAGUAUAUUGAUUAGUUUUGGAGUACUCGUGGUCG
In short: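 Fitness was computed with DiMSum as the error-weighted combination of replicate fold changes, kanamycin versus none, each normalised to wild type. The library randomised all eight intron nucleotides of the P1ex region, with the intron placed in the knt kanamycin-resistance gene on pET-22b(+) in E. coli BL21(DE3). Six replicate transformations were grown overnight at 37°C or 30°C on LB agar with or without 25 μg/mL kanamycin, plus 100 μg/mL carbenicillin, 50 μM IPTG and 0.2% rhamnose. Pooled colonies were amplicon-sequenced on an Illumina HiSeq 2500.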

Row | Sequence | self-splicing fitness (ln) (30 °C) | self-splicing fitness (ln) (37 °C)
1 | GUUGAGCAAUAUUACGGGGC | -2.38 ± 0.19 | -2.84 ± 0.29
2 | GUUGAGCAAUAUUACGGUCA | -1.81 ± 0.26 | -2.45 ± 0.29
3 | GUUGAGCAAUAUUACGGUCC | -2.05 ± 0.15 | -1.3 ± 0.19
4 | GUUGAGCAAUAUUACGGUCU | -3.49 ± 0.21 | -2.56 ± 0.18
5 | GUUGAGCAAUAUUACGUCAA | -2.76 ± 0.28 | –
6 | GUUGAGCAAUAUUACGUCAG | -2.67 ± 0.17 | -2.86 ± 0.31
7 | GUUGAGCAAUAUUACGUCAU | -2.26 ± 0.21 | -2.44 ± 0.38
8 | GUUGAGCAAUAUUACGUCCU | -1.27 ± 0.17 | -1.47 ± 0.21
9 | GUUGAGCAAUAUUACGUUCC | -1.13 ± 0.26 | -1.31 ± 0.34
10 | GUUUAGCAAUAUUACGAAAU | -1.54 ± 0.11 | -1.85 ± 0.19
11 | GUUUAGCAAUAUUACGACAC | -0.84 ± 0.091 | 0.0746 ± 0.14
12 | GUUUAGCAAUAUUACGACAG | -3.68 ± 0.32 | -2.43 ± 0.34
13 | GUUUAGCAAUAUUACGAUAG | -3.5 ± 0.32 | -1.88 ± 0.31
14 | GUUUAGCAAUAUUACGCCAC | -1.72 ± 0.46 | –
15 | GUUUAGCAAUAUUACGCUGU | -1.52 ± 0.12 | -2 ± 0.14
16 | GUUUAGCAAUAUUACGGAUU | -1.48 ± 0.097 | -0.737 ± 0.12
17 | GUUUAGCAAUAUUACGGGUG | -2.84 ± 0.21 | -1.53 ± 0.17
18 | GUUUAGCAAUAUUACGUACU | -0.0508 ± 0.3 | 0.333 ± 0.33
19 | GUUUAGCAAUAUUACGUAGC | -1.61 ± 0.2 | -0.831 ± 0.17

Row | Sequence | self-splicing fitness (ln) (30 °C) | self-splicing fitness (ln) (37 °C)
20 | GUUUAGCAAUAUUACGUAGU | -1.84 ± 0.14 | -0.706 ± 0.14
21 | GUUUAGCAAUAUUACGUCCA | -1.53 ± 0.24 | -1.18 ± 0.28
22 | GUUUAGCAAUAUUACGUGAA | -1.35 ± 0.12 | -2.04 ± 0.18
23 | GUUUAGCAAUAUUACGUUCU | -1.41 ± 0.14 | -0.628 ± 0.17
24 | GUUUAGCAAUAUUACGUUGC | -3.73 ± 0.27 | -2.59 ± 0.34
25 | UAAAAGCAAUAUUACGACCG | 0.0682 ± 0.1 | 0.499 ± 0.15
26 | UAAAAGCAAUAUUACGACUG | 0.248 ± 0.1 | -0.671 ± 0.12
27 | UAAAAGCAAUAUUACGAGCG | -0.13 ± 0.099 | -0.191 ± 0.11
28 | UAAAAGCAAUAUUACGAUCC | -2.13 ± 0.34 | -2.05 ± 0.27
29 | UAAAAGCAAUAUUACGAUCU | -0.413 ± 0.079 | 0.0961 ± 0.099
30 | UAAAAGCAAUAUUACGCACA | -0.0521 ± 0.12 | 0.516 ± 0.16
31 | UAAAAGCAAUAUUACGCAGG | -1.55 ± 0.12 | -1.2 ± 0.11
32 | UAAAAGCAAUAUUACGCCUG | -0.364 ± 0.088 | 0.229 ± 0.12
33 | UAAAAGCAAUAUUACGCGAG | -0.897 ± 0.075 | -0.186 ± 0.095
34 | UAAAAGCAAUAUUACGGAUC | -2.28 ± 0.29 | -1.81 ± 0.24
35 | UAAAAGCAAUAUUACGGCAG | -0.504 ± 0.079 | -0.106 ± 0.097
36 | UAAAAGCAAUAUUACGGCCC | -2.11 ± 0.34 | -1.28 ± 0.33
37 | UAAAAGCAAUAUUACGGUCA | 0.0761 ± 0.086 | 0.333 ± 0.087
38 | UAAAAGCAAUAUUACGGUUG | -1.53 ± 0.075 | -0.701 ± 0.096
